Where a chain is given by its changes, count along the chain named.
B1: TM-86: anti-TMEM106B monoclonal antibody; VH SEQ ID NO: 491, VL SEQ ID NO: 526 (antibody, V domains shown)
VH: EVQLQQSGPVLVKPGASVKMSCKASGYTFTDYYIHWVKQSHGRSLEWIGVISPYNDNTNYNQKFKGKATLTVDKSSSTAYMELNSLTSEDSAVYYCVRTYYSNYFDYWGQGTTLTVSS
VL: DIVMTQSPSSLSVSAGEKVTMSCKSSQSLLNSGNQKNYLAWHQQRPGQPPKLLIYGASTRESGVPDRFTGSGSGTEFTLTISSVQAEDLAVYYCQNDHSYPLTFGAGTKLELK
modifications: Variable Heavy Chain -- TM-86; Variable Light Chain -- TM-86
B2: TM-28: anti-TMEM106B monoclonal antibody; CDR-H1-3 SEQ ID NO: 8, 59, 102; CDR-L1-3 SEQ ID NO: 142, 166, 190 (antibody, V domains shown)
VH: EVQLQQSGPVLVKPGPSVKISCMASVFTFNDYYIHWVKQSHGKSLEWIGLVYPYNGGTNYNQNFKGKATLTVDTSSRTAYMELNSLTSEDSAVYYCARSYFSNPIGYWGQGTLVTVSE
VL: B1 VL with A15V, M21V, H42Y, R45K, E76D
B3: TM-88: anti-TMEM106B monoclonal antibody; VH SEQ ID NO: 493, VL SEQ ID NO: 528 (antibody, V domains shown)
VH: EAQLQQSGPVLVKPGASVKMSCKTSGYTFTDYYINWVKQSHGKSLEWIGVINPYSGATYYTQKFKGKATLTVDKSSSTAYMELNSQTSEDSAVYYCARGGYDYGHWYFDVWGTGTTVTVSS
VL: ETTVTQSPASLSMAIGEKVTIRCITSSDIDDHMNWYRQKPGEPPEFLISEGNALRPGVPSRFSSSGYGTDFIFTIENILSEDVADYYCLQSDNLPLTFGAGTKLELK
modifications: Variable Heavy Chain -- TM-88; Variable Light Chain -- TM-88
B4: TM-15: anti-TMEM106B monoclonal antibody; CDR-H1-3 SEQ ID NO: 15, 49, 92; CDR-L1-3 SEQ ID NO: 133, 171, 197 (antibody, V domains shown)
VH: QVQLQQPGAEFVRPGASVKLSCKASGYTFTNYWITWVKQRPGHGLEWIGDIYPGSGNSNYNESFKRKATLTVDTSSSTAYMHLSSQTSEDSAVYFCARKAYGGFPYWGQGTLVTVSA
VL: DIQMTQSPASLSVSVGETVTITCRVSENIYNNLAWYQQKQEKSPQLLVFAATNLADGVPSRFSGSGSGTQFSLKINSLQSEDFGTYYCQHFWDTPFTFGSGTKLEIK
B5: TM-72: anti-TMEM106B monoclonal antibody; VH SEQ ID NO: 477, VL SEQ ID NO: 512 (antibody, V domains shown)
VH: QVQLQQPGAELVKPGTSVKLSCKASGSTFTNYWMHWVMQRPGQGLEWIGNIDPSDSDTHYNQKFKDRAKLTVDKSSSTAYMQLSGLTSEDSAVYYCARSRGGYYDYGEAMDYWGQGTSVTVSS
VL: DIVMTQAAPSVPVTPGESVSISCRSSKSLLHTNGNTYLFWFIQRPGQSPHLLIYRKSNLASGVPDRFSGSGSGTAFTLRISRVEAEDVGVYYCMQHLEYPFTFGSGTKLEIK
modifications: Variable Heavy Chain -- TM-72; Variable Light Chain -- TM-71, TM-72
B6: TM-63: anti-TMEM106B monoclonal antibody; VH SEQ ID NO: 469, VL SEQ ID NO: 505 (antibody, V domains shown)
VH: QVQLQQPGAELVKFGASVKLSCKASGYTFTSFWMHWVKQRPGQGLEWIGNIDPSDSETHYSQKFKDKATLTVDRSSNTAYIQLSSLTSEDSAVYYCARSSNWDNFDYWGQGTTVTVSS
VL: DIVMTQASPSVSVTPGESVSISCRSSQSLLHVNGNTYLYWFLQRPGRSPRLLIYRMSNLASGVPDRFSGSGSGTAFTLRISRVEAEDVGVYYCMQHLQYPFSFGSGTKLEMK
modifications: Variable Heavy Chain -- TM-63; Variable Light Chain -- TM-63
B7: TM-78: anti-TMEM106B monoclonal antibody; VH SEQ ID NO: 483, VL SEQ ID NO: 518 (antibody, V domains shown)
VH: QVQLQQPGAELVKPGASVKLSCKASGYTFTNHWMHWVRQRPGQGLEWIGNIDPSDSDTHYNHKFKDKATLIVDKSSSTAYLQLSSLTSEDSAVFYCARSRGGYYDYGEAMDYWGQGTSVTVSS
VL: B5 VL with A8T, V11I, T32V, I42L, H50Q, K56M
modifications: Variable Heavy Chain -- TM-78; Variable Light Chain -- TM-78
B8: TM-64: anti-TMEM106B monoclonal antibody; VH SEQ ID NO: 470, VL SEQ ID NO: 506 (antibody, V domains shown)
VH: QVQLQQPGAELVKPGASVKLSCKASGYTFTSYWMHWVKQRPGHGLEWIGNIDPSDSDTHYNQNFRGKATLTVDKFSTTAYMHLSSLTSEDSAVYYCARSRGGTYDYGEAMDYWGQGTSVTVSS
VL: B5 VL with I42L, Q47R, H50Q, K56M
modifications: Variable Heavy Chain -- TM-64; Variable Light Chain -- TM-64
B9: TM-84: anti-TMEM106B monoclonal antibody; VH SEQ ID NO: 489, VL SEQ ID NO: 524 (antibody, V domains shown)
VH: QVQLQQSGAELVKPGASVKMSCKASGYTFTTFPIEWMKQNHGKSLEWIGNFHPYNDDTKYNEKFKGKATLTVEKSSSTVYLELSRLTSDDSAVYYCARYFYGGMDYWGQGTSVTVSS
VL: DIQMTQSPASLSVSVGETVTITCRASENIYSSLGWYHQKQGKSPQLLVFAATNLADGVPSRFSGSGSGTQYSLKINSLQSEDFGTYYCQHLWSVPWTFGGGTKLEIK
modifications: Variable Heavy Chain -- TM-84; Variable Light Chain -- TM-84
B10: TM-5: anti-TMEM106B monoclonal antibody; CDR-H1-3 SEQ ID NO: 6, 39, 82; CDR-L1-3 SEQ ID NO: 124, 164, 188 (antibody, V domains shown)
VH: QVQLQQSGTELARPGASVKVSCKASGYIFTTYGITWVKQRGGQGLEWIGEIYPRSDNTYYNEKFKDKATLTADKSSSTAYMELRSLTSEDSAVYFCARSKGSGTGDYWGQGTTVTVSS
VL: DIQMTQSPASLSASVGETVTITCRASENIYIYLAWYQQKQGKTPQLLVYNGKMLAENVPSRFSGSGSGTQFSLKINSLQPEDFGSYYCQHHYGSPPAFGAGTKLELK
B11: TM-30: anti-TMEM106B monoclonal antibody; CDR-H1-3 SEQ ID NO: 21, 61, 104; CDR-L1-3 SEQ ID NO: 144, 160, 208 (antibody, V domains shown)
VH: QVQLQQSGPELVKPGASVKLSCKASDNTFTNYDVNWVRQRPGQGLEWIGWIYPRDGTTIYNEKFKGRATLTVDTSSSTAYMELHSLTSEDSAVFFCARTLPQAMDYWGQGTSVTVSS
VL: DVLMTQSPLSLPVSLGDQVSISCRSSQTIVHRNGNTYLEWYLQKPGQSPKLLIYKVSNRFSGVPDRFSGSGSGTDFTLKISRVEAEDLGVYYCFQGSHLPWTFGGGTKLEIK
B12: TM-29: anti-TMEM106B monoclonal antibody; CDR-H1-3 SEQ ID NO: 20, 60, 103; CDR-L1-3 SEQ ID NO: 143, 168, 207 (antibody, V domains shown)
VH: QVQLRQSGAELVRPGASVKLSCKASGYTFTDYYINWVKQRPGQGLEWIARIYPGSGYTYYNEKFKGKATLTAEGSSNTAYMQLSSLTSEDSAVYFCANHYTNPFAYWGQGTLVTVSA
VL: DIVMTQAAFSNPVTLGTSASISCRSSKSLLHYNGITYLYWYLQKPGQSPQLLIYQMSNLASGVPDRFSSSGSGTDFTLRISRVEAEDVGVYYCAQNLELPYTFGGGTKLEIK

The molecules below were run against GST-TMEM106B (truncated, comprising amino acids 122-210 of SEQ ID NO:1) (Homo sapiens, UniProt Q9NUM4) (assay: Pre-mix epitope binning of anti-TMEM106B antibodies (Carterra / Lake Pharma)). Settings: competition for binding to truncated GST-TMEM106B (amino acids 122-210).
Chain of GST-TMEM106B (truncated, comprising amino acids 122-210 of SEQ ID NO:1) (Q9NUM4 122-210): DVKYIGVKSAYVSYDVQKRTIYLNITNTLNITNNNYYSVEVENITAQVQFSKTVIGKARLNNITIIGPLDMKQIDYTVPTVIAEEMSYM
Assay type: binding
Design: key to epitope bin: Bin 1: competes for binding to the same or overlapping TMEM106B region as the TM1, TM17, TM22, TM26, TM79, and/or TM82 antibodies; Bin 2: competes for binding to the same or overlapping TMEM106B region as the TM3, TM9, TM10, TM11, TM12, TM13, TM18, TM19, TM21, TM24, TM25, TM32, TM35, TM37, TM42, TM45, TM48, TM54, TM59, TM60, TM61, and/or TM76 antibodies; Bin 3: competes for binding to the same or overlapping TMEM106B region as the TM7, TM15, TM83, and/or TM84 antibodies; Bin 4: competes for binding to the same or overlapping TMEM106B region as the TMS, TM28, TM29, TM30, TM63, TM64, TM72, TM78, TM80, TM86, and/or TM88 antibodies; Bin 5: does not bind to a truncated TMEM106B comprising amino acids 122-210 of SEQ ID NO:1
Procedure: (§1) Monoclonal anti-TMEM106B antibodies were immobilized to a CMD 50M chip (Xantec # SPMXCMD5OM lot# SCCMD50M0416). The running buffer was HBS-EP+ with 1 mg/mL BSA. The GST-TMEM106B (truncated, comprising amino acids 122-210 of SEQ ID NO:1) antigen was prepared at a final concentration of 55 nM (corresponding to 2 μg/mL) and mixed with the competing analyte anti-TMEM106B antibodies at a final concentration of 333 nM (corresponding to 50 μg/mL) or compared to a buffer control. Samples were injected for 5 minutes over the array and regenerated after every cycle with 1 minute of two parts Pierce IgG-Elution buffer (ThermoFisher Cat#21004) and 1 part of 10 mM Glycine, pH 2.0 (Carterra).
Anti-TMEM106B antibodies sorted into various competing bins and resulting binning profiles. […] Antibodies within Bin 3 or Bin 4 partially block Bin 2 antibodies.
as §1, with “SPMXCMD50M” for “SPMXCMD5OM”, “lmg/ml” for “1 mg/mL”, “(truncated)” for “(truncated, comprising amino acids 122-210 of SEQ ID NO:1)”, “μg/ml)” for “μg/mL)”
B1 was tested, and the epitope bin was “Bin 4”. B2 was tested, and the epitope bin was “Bin 4”. B3 was tested, and the epitope bin was “Bin 4”. With B4 the epitope bin was “Bin 3”. B5 was tested, and the epitope bin was “Bin 4”. With B6 the epitope bin was “Bin 4”. For B7, the epitope bin was “Bin 4”. For B8, the epitope bin was “Bin 4”. For B9, the epitope bin was “Bin 3”. B10 was tested, and the epitope bin was “Bin 4”. With B11 the epitope bin was “Bin 4”. For B12, the epitope bin was “Bin 4”.

Same assay, conditions: epitope bin number; pre-mix binning on truncated GST-TMEM106B
With B1 the “Binding Community/Bin” value was 4. In the case of B2, the “Binding Community/Bin” value is reported as 4. In the case of B3, the “Binding Community/Bin” value is reported as 4. B4 was tested, and the “Binding Community/Bin” value was 3. For B5, the “Binding Community/Bin” value was 4. In the case of B6, the “Binding Community/Bin” value is reported as 4. B7 was tested, and the “Binding Community/Bin” value was 4. B8 was tested, and the “Binding Community/Bin” value was 4. With B9 the “Binding Community/Bin” value was 3. In the case of B10, the “Binding Community/Bin” value is reported as 4. B11 was tested, and the “Binding Community/Bin” value was 4. B12 was tested, and the “Binding Community/Bin” value was 4.

— patent publication US20240166738A1 (priority 2021, published 2024)
